Assay results reported in patent publication US20190359722A1 (TOYO UNIVERSITY, published 2019).

B1: mouse anti-EPHA2 monoclonal antibody 230-1 (antibody, V domains shown)
VH: EVQLVESGGGLVKPGGSLKLSCEASGFTFSDYYMYWVRQTPEKRLEWVATISDDGSFTHYLDSVKGRFTISRDNAQNNLYLQMSSLKSDDTAMYYCARDGYRYDRPFAYWGQGTLVTVSA
VL: DIVMTQSHKFMSTSVGDRVRITCKASQDVNTAVAWYQQKPGQSPKLLIYWASTRHTGVPDRFTGSGSGTDYSLTISSVQAEDLALYYCQQHYSTPYTFGGGTKLEIKR
notes: The variable regions were found by 5'-RACE; Used unlabeled as capture antibody and biotin-labeled as detection antibody; also called biotin-labeled antibody 230-1
B2: mouse anti-EPHA2 monoclonal antibody 57-1 (antibody, V domains shown)
VH: QIQLVQSGPELKKPGETVKISCKGSGYTFTNYGMNWVKQAPGKGLKWMAWINTDTGEPIFVEEFKGRFAFSLETSASTAYLQINNLTNEDTATYFCARSMGGFANWGQGTLVTVSA
VL: DIVMTQSPATLSVTPGDRVSLSCRASQNISDYLHWYQQKSHESPRLLIKYASQSISGIPSRFSGSGSGSDFTLTINSVEPEDVAMYYCQNGHTFPTFGAGTKLELKR
notes: The variable regions were found by 5'-RACE; Used unlabeled as capture antibody and biotin-labeled as detection antibody; also called biotin-labeled antibody 57-1

Biological target: T1, full-length human EPHA2 expressed on 293T cells (pcDNA-DEST40-EPHA2) (human, UniProt P29317 24-976)
T1 construct: The stop codon was removed before transfer into pcDNA-DEST40; also called EPHA2-expressing 293T cells
Assay: flow cytometry, hybridoma supernatant on EPHA2-transfected 293T cells
Method: 293T cells were seeded at a density of 5×10⁴ cells/cm² on a collagen type I-coated flask (IWAKI), and were then cultured in DMEM supplemented with 10% FBS at 37° C. in 5% CO₂ under a humidified atmosphere overnight. On the following day, the 293T cells were transfected with each of pcDNA-DEST40-EPHA2 and pcDNA-DEST40-ERBB2 (negative control), using Lipofectamine 2000 (Invitrogen, Thermo Fisher Scientific), and thereafter, the resulting cells were further cultured at 37° C. in 5% CO₂ under a humidified atmosphere overnight. On the following day, the transfected cells were treated with trypsin, and were then washed with DMEM supplemented with 10% FBS. The resulting cells were suspended in 5% FBS-containing PBS. These cells were used in Cell-ELISA and flow cytometric analysis.
In order to eliminate false-positive results in the Cell-ELISA, the specific binding ability of antibodies generated by the hybridomas that had been determined to be positive in the Cell-ELISA was confirmed by flow cytometry. The cells prepared in the above 1)-6-1 were mixed with a culture supernatant of the hybridomas, and the obtained mixture was then incubated at 4° C. for 1 hour. […]

T1 sequence (P29317 24-976 limits assumed): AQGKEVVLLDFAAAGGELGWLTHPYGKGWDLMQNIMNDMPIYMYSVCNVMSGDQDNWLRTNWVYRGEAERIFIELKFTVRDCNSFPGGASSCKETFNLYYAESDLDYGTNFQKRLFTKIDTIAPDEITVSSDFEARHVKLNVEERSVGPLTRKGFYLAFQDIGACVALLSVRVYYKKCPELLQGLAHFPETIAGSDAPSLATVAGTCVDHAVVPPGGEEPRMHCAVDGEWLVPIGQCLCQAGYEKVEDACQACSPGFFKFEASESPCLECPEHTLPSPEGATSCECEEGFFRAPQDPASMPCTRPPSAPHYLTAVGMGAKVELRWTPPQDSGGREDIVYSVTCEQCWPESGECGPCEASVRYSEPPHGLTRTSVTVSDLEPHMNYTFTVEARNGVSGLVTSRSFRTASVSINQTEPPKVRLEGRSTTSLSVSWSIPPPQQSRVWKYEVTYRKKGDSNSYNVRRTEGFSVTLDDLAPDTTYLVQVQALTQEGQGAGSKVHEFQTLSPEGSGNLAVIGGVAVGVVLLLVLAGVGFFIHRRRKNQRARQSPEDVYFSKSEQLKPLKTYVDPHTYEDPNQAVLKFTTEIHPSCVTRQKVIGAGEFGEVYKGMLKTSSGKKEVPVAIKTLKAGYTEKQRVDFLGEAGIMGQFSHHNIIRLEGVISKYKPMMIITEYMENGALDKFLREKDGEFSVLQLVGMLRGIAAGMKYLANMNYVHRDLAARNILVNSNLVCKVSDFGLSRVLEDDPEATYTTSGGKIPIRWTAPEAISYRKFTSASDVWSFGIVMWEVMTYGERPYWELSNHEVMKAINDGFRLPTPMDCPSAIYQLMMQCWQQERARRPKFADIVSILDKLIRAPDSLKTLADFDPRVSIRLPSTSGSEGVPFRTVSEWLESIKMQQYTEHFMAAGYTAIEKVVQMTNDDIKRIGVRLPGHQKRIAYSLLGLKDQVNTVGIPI

Binder | binding result
B1 | binds
B2 | binds
